In the DeepSol protein solubility set:

Assay: soluble on expression in E. coli; label from the status in PepcDB or PDB records

Soluble on expression in E. coli, not soluble:
MSRGSGILPDESMFAEFKRQCLSTENWVNKYDKNDMEVWVEQAPLSASINNKGNYSKVHKIRCQINIKDVSAATMYDVLHDGQYRKTWDPTMLESFDIARLAHNADVGYYSWICPKPLKNRDVVTLRSWQASENEYVIINFSVKHPKYPPRKDLVRAVSLMTGYLIKPTGPQSCIFTYLSQADPKGSLPKWVVNKASQVLAPKVLRSAHKAGQNYPAWKAANSPDHKPWLYPIQSELAMMDPAELSIQRGDSLENVDESSTRDAQENEDSS
MARLTVHTLETAPEAAKPRVEAVPKNNGFIPNLIGVLANAPEALAFYQEVGKLNAANSLTAGEVEVIRIIAVRTNQCSFCVAGHTKLATLKKLLSEQSLNAARALAAGKSDDAKLGALAAFTQAVMAKKGAVSDDELNAFLEAGYNRQQAVEVVMGVALATLCNYANNLAQTEINPKLQAYA
MKCSWREGNKIQLLENGEQYYPAVFKAIGEAQERIILETFIWFEDNVGKQLHAALLAAAQRGVKAEVLLDGYGSPDLSDEFVNELTAAGVVFRYYDPRPRLFGMRTNVFRRMHRKIVVIDARIAFIGGLNYSAEHMSSYGPEAKQDYAVRLEGPIVEDILQFELENLPGQSAARRWWRRHHKAEENRQPGEAQVLLVWRDNEEHRDDIERHYLKMLTQAQREVIIANAYFFPGYRFLHALRKAARRGVRIKLIIQGEPDMPIVRVGARLLYNYLVKGGVQVFEYRRRPLHGKVALMDDHWATVGSSNLDPLSLSLNLEANVIIHDRHFNQTLRDNLNGIIAADCQQVDETMLPKRTWWNLTKSVLAFHFLRHFPALVGWLPAHTPRLTQVDPPAQPTMETQDRVETENTGVNP
MGSDKIHHHHHHMSSIIENLQLAAQQVHLINLYQANSEVVYTGYIDRLAPDGVVVNTYDDAGLQDGAVFMRYDVIDEVEMMSEDLDNMAFRLENATTEGLNSVPQPTVALDDQRPVLTQLVTQAQTDHQVVLLVLEDNENYLEGQVQQVTDQTITFKTFDKFNFKNNGQQEIPLAAIQILEFCGNELLLESAFVKTIHTHRATIKVSEFDDVDHTLNNALNEHQLIAIRSADGSDMFFVGFINALNADSVLLNLIDMTGQFGGYTLCRRSLIESVTTQSDYLQTMRGFIELNRQYELNVQPVLNDERLFDATTDLFDSILRQAATFNNLVHITTENPMLPAMTGYPGTLTNGHFIFYNVDDDNQINHVGTMIELDQVVELSFGYMDAYLLEKRLKSTGNL
MAHHHHHHMNESSIYIYNLTRNVSINHLKEIFMNFGTLKDVQYVTYVEESMFHEKGDGKDGDKKEDNDDKEEDDDKEEDNNKEEDNDKEEDNDKEEDNDNNDDNNDDNNDDNNDDGDDNDDNHICVHIKYENSKEAQAAKEFMDGGQIDGKIISVKYKINHKYIKTYTKKKKEKKKKN
MMAIQASDMDISRFGSEIFRNSPRQSDLMIVSGTVTKKMAPRVRRIYDEMPYPKYVIAQGVCVIQGGPYNQGYSVVLGVDKVVPVDVYVPGCPPTPEALTNGIILLQKKIRGEADRLEHHHHHH
PMSEIVRVHASSGTTGKPTVVGYTRRDIAMWSEVVARALNCAGASREDFIQIAYGYGLFTGGLGLHYGSEKLGATVIPISGGNTQKQVQLMADFKTTVLACTPSYALYLAESLEEAGMTTDDISLRVGIFGAEPWTPGMRKEIEIKLGIKAMDIYGLSEVMGPGVACDCEYQAGLHVN
STPGPGASAPNSPMALLTLNCEKEMDDVIEDIISLESSYSDDILGFMDAGLQMTNTIPVSANLLDMYSNHALPPAGVSISNSCPSSLPAVKRELSVTPSPGMMHIMDKAGPCGKFDSYQRPDGFPVEVRALAKERQKKDNHNLIERRRRFNINDRIKELGTLIPKSNDPDMRWNKGTILKASVDYIRKLQKEQQNAKELENRQKRLEHANRHLLLRIQELEMQARAHGLTVVASSSLYSAELVARAIKQEPGMGDCTSNLYPHLPSPDMSRPTTLDLNNGTISYNDSPTEDGEPGVYDSPNKASTKLEDMLMDNTLSPVGSSDPLLSSGSPVPSNSSGSSSMDEHDNGC
MGSDKIHHHHHHMDSEFANAVELSYECAPLLESLKEYSEKDIACFDVPGHVKNRGVAILNKYLGESLMKMDINSSPTMDNVSAPNGIIKNAQDLLAQAYMADEAFFITNGTTQAIHAMILSVIKPGEKVLLPRNIHKSVINALILCGGIPIFIQPEFDEKLGISLNITLEKVRTEIEKDCNIKALFFLNPTYYGVCADLESIIELCHKNNVLVLVDEAHGAHFPFHLDLPPSAISLGADMVAVSIHKTGGALTQSSALLLNRDNVSFEKVLQSINMLQSTSASYLLMASIDGARVNLVENGEKQLSKALNLSRYAKSKLNKIDGIKVLSTEILKQKGVKFIDETKLCINVKELNLTGFEVYDLLYKNFSIQVELGDSYNILALVSIGTNKSDIDRLVKALSIIAKVYRKESTLNEFNMVQINPIIKLNPREAFYAPKESVEINSCIDRICGESIMAYPPGIPIIAPGELITEEIMEYIIFLKNSNAYLTDVQDKNLDRILVIK
MDLIPARIGLIYNPLGGWFRKHTARMQSLLATLPEIRQIQATDQIEFERAVTVVVEAKIGWLIVVGGDGTLQGVMSCLFECLPPDRWPEITIVPAGTTNMTALDLGMNGQAEQILSRIRQHLQRPGDMKQVRRP
MAHHHHHHMRVRSLLLCIRRDPLQRAVDVAYASGMLLGSGSSRGTTHFSETTAFTSSNFAADLRGGRVGLAGDGGTKCDDRNGELVRGRIQFASRCAEGPFVGASPTVTSCAHIEGVVRQVECGYVGGDRVLQFIIEVEEVPASGGTPMRLPLAVRWRPGSEVAQNRMDEWQKEMERLVGRRVLASGRLQVEECFDSGSRRLYKTPSLVLPATSTVEMISLQELEC
MGAIEDVYADLDTDVSIEEFREAVESKVEQMGGLADEETAAMLIAHEIDDGEVNGVADIDSEMDEVKFIAKVTRVGDVRTFDREDADDDDAAAEGRVVNVTVADETDDVRVSLWDEQATAAADDLAPGDVLRIKGRPTDGYNGLEVSADEVELDADEQIDVQIQDEYDAADLSLGVSDVTLVGEVLDTEAVRTFDRDDGSEGRVSNLVVGDETGRVRVTLWDDQADTATDLDAGAVVEIVDGYVREREGSLELHVGDTGAVTPVPDADVSFVPDTTSIDSLEQDDTADIAGVVRSVDPTRTFDRDDGSEGQVRNVRLQDDTGDIRVALWGEKADLDIGPGDEVAALDVEIQDGWQDDIEASAGWQASVIPLSDSTQDDAAAGSDGPDRGLAAFGADSDDEPAATDDAADTQTPHSDTPVEFTGVVVQAQDPLILDDGEETMSVTTDADVTLGQEVTVRGSLDDGRLHADDVTESLEHHHHHH
AAAKPADKALQAQLPEMALPREAAPRLDGLAAVLPQIHPAEAGKPAESFSLALPPSQPESWSGKLQAALGERLQAMPAQNMDRATLRLDPPSLGTLEISLRHQAGALTVELTASHGEVVRQLQGIGEALRQDLGGRQYTQVAVEVREGM
MGHHHHHHSHAEDATERACGLTMDPECAQLLPALCAVLVDPRQPVADDTCLEKLLDWFKTVTEGESSVVLLQEHPCLVELLSHVLKVQDLSSGVLSFSLRLAGTFAAQENCFQYLQQGELLPGLFGEPGPLGRATWAVPTVRSGWIQGLRSLAQHPSALRFLADHGAVDTIFSLQGDSSLFVASAASQLLVHVLALSMRGGAEGQPCLPGGDWPACAQKIMDHVEESLCSAATPKVTQALNVLTTTFGRCQSPWTEALWVRLSPRVACLLERDPIPAAHSFVDLLLCVARSGPRDAAGGPGWATVFLG

Soluble on expression in E. coli, soluble:
MSLNALKREDAANKKLGVLIYENVQPMDVIGPWEVFATWKTILDASIDMFLVAESSNEVCCANQISLKPHCEFNNSPQFDYLLVPGGAGRREQVNNPRLISFLKKQAQNTDYLLSVCTGAFLLHAAGLLTHHEATTYWRAMPELKSFEDVQLVEKRIVKSGKVWTTGGISSGIDLAFEFISTIAGNDVAGKIQLLFEYFPECKLYSQPAMVSELPSYYATKKDEAVLEMNLPDYIKEYFKKSEGHHHHHH
SFALEELPRIPDFTERAICELFELYASIESVQLPPQSSDATNSSSATAPGNIFSAERGPRYLGPRALVRFFTELGVDMRSLAALAFAWLGRWQYPCHCREEGFARGVRYALWALDRRQHNEPRRWEQVQATCSTLLETSIWPRESTALFERLRSAFPDAVLSYTQRSAEAALDFYLFAFDLNRQSPYRRSLSLTDARYLWKQFLSESCYLATPASPGTPAGVANQPWRYLEHFDAYLESRCGMAGTIISRDTWYWVLMFARETQVAGSSFFANYNQGDAWPVLLDGFVEYLRENKLLSS
GPGSMSAEAVADLERRAAAAETAIGELSLRLQTMGSSVGAGIEPRLRELLKLMHEDRAEFEAVRAQRDELKEENERLKIQVAKHEYRIKHLLRTIEEISPEENS
MMLSATQPLSEKLPAHGCRHVAIIMDGNGRWAKKQGKIRAFGHKAGAKSVRRAVSFAANNGIEALTLYAFSSENWNRPAQEVSALMELFVWALDSEVKSLHRHNVRLRIIGDTSRFNSRLQERIRKSEALTAGNTGLTLNIAANYGGRWDIVQGVRQLAEKVQQGNLQPDQIDEEMLNQHVCMHELAPVDLVIRTGGEHRISNFLLWQIAYAELYFTDVLWPDFDEQDFEGALNAFANRERRFGGTEPGDETA
MEMDKAVTGVALDLDHAQIGLIGIPDQPGIAAKVFQALAERGIAVDMIIQGVPGHDPSRQQMAFTVKKDFAQEALEALEPVLAEIGGEAILRPDIAKVSIVGVGLASTPEVPAKMFQAVASTGANIEMIATSEVRISVIIPAEYAEAALRAVHQAFELDKAHHHHHH
MSLAQRLATGKAGSIGLVMPTAPGHQSDVHFGEFLAGLGEEAVRHDFHFVIMPSDPDDEVAALRRLAISGNVDALFIAYMRGHDPRLAMLKSLSMPYVVHGRSFGAELDYPYLDIDNEGAFYDATRLLLQLGHTRFALMNGPMHLDFAIRRRNGVISALAERGLTLEEDCMSHALMTDEQGLLAMERFLQLPERPTAILCSSTVMALGAIRAVNQAGLRLGEDVSLIAHDDVLPLLKPENFSVPLTTTRSSLRAAGVRIAQRLIGTVKQAGPFPEQELWKTELIVRASTGPAPQEGHHHHHH
MYINVVKCMWKQIKHRFEGYPSRMYVARKIIDLGFRIDRNGKIYCDDVEISDVALARAVGVDRRTVRATANTILEDEKLRGIFENMMPAGALLRDAAGELDFGVVEIEADARNPGILAAAARLIADKGISIRQAHAGDPELDETPRLTIITETPIPGGLLKDFLKIDGVKRVSIY
METPYHQRWLAFPDAVSSYRPLESRLAGTSRATADNRTPCTGRLGTPRVFLMATDDVSKAYSSPTFDAEALLGTVISAEDPDRVLIEPWATGVDGVILDVGSGTGRWTGHLASLGHQIEGLEPATRLVELARQTHPSVTFHHGTITDLSDSPKRWAGLLAWYSLIHMGPGELPDALVALRMAVEDGGGLLMSFFSGPSLEPMYHPVATAYRWPLPELAQALETAGFQVTSSHWDPRFPHAYLTAEASLEHHHHHH
GSMALPKDAIPSLSECQCGICMEILVEPVTLPCNHTLCKPCFQSTVEKASLCCPFCRRRVSSWTRYHTRRNSLVNVELWTIIQKHYPRECKLRASGQESEEVADDYQPVRLLSKP
MNPIIDGIIALEGGYVFNPKDKGGATHWGITEATARAHGYAGDMRDLTHAEAYAILEEDYWIKPGFDVISTLSWPVSFELCDAAVNIGAYHPSAWLQRWLNVFNHEGKRYPDIHVDGNIGPRTLAALEHYLAWRGQEGEAVLVKALNCSQGTYYLNVAEKNHNNEQFIYGWIKNRVT
